Results taken from patent US20240400715A1 (VIBRANT PHARMA, published 2024).
Positions count from the first letter of the chain named. Values joined by “and” are separate entries in the source; they are usually repeats but may differ in a detail not shown here. Equal entries are not always repeated.

B1: 312 (TA7), configuration of FIG. 1X (bispecific antibody, IgG4)
heavy: EVQLVQSGAEVKKPGASVKVSCKASGFTFTSYYIHWVRQAPGQGLEWIGWIYPENDNTKYNEKFKDRVTITADTSTSTAYLELSSLRSEDTAVYYCARDGYSRYYFDYWGQGTLVTVSSASTKGPSVFPLAPCSRSTSESTAALGCLVKDYFPEPVTVSWNSGALTSGVHTFPAVLQSSGLYSLSSVVTVPSSSLGTKTYTCNVDHKPSNTKVDKRVESKYGPPCPPCPAPEAAGGPSVFLFPPKPKDTLMISRTPEVTCVVVDVSQEDPEVQFNWYVDGVEVHNAKTKPREEQFNSTYRVVSVLTVLHQDWLNGKEYKCKVSNKGLPSSIEKTISKAKGQPREPQVYTLPPCQEEMTKNQVSLWCLVKGFYPSDIAVEWESNGQPENNYKTTPPVLDSDGSFFLYSRLTVDKSRWQEGNVFSCSVMHEALHNHYTQKSLSLSLGGGGSGGGGSEVQLVESGGGFVQAGESLTLSCTSSTLTFTPYRMAWYRQAPGKQRDLVADISSGDGRTTNYADFAKGRFTISRDNIKNTVFLRMTNLKPEDTAVYYCNTFVSFVGIARSWGQGTQVTVSS
chain: ESKYGPPCPPCPAPEAAGGPSVFLFPPKPKDTLMISRTPEVTCVVVDVSQEDPEVQFNWYVDGVEVHNAKTKPREEQFNSTYRVVSVLTVLHQDWLNGKEYKCKVSNKGLPSSIEKTISKAKGQPREPQVCTLPPSQEEMTKNQVSLSCAVKGFYPSDIAVEWESNGQPENNYKTTPPVLDSDGSFFLVSRLTVDKSRWQEGNVFSCSVMHEALHNRFTQKSLSLSL
light: DIVMTQSPDSLAVSLGERATINCKSSQSLLNSRTRKNYLAWYQQKPGQSPKLLIYWTSTRKSGVPDRFSGSGSGTDFTLTISSLQAEDVAVYYCKQSFILRTFGQGTKVEIK
notes: chains put together from parts; IgG4, kappa; not shown: kappa light chain constant domain (CL)
B2: CEA-Fab-Knob-+Hole (201) (bispecific antibody, human IgG4 S228P, kappa, F234A L235A)
heavy: EVKLLESGGGLVQPKGSLKLSCAASGFTFNTYAMNWVRQAPGKGLEWVARIRSKYNNYATYYADSVKDRFTISRDDSQSILYLQMNNLKTEDTAMYYCVRHGNFGNSYVSWFAYWGQGTLVTVSSASTKGPSVFPLAPCSRSTSESTAALGCLVKDYFPEPVTVSWNSGALTSGVHTFPAVLQSSGLYSLSSVVTVPSSSLGTKTYTCNVDHKPSNTKVDKRVESKYGPPCPPCPAPEAAGGPSVFLFPPKPKDTLMISRTPEVTCVVVDVSQEDPEVQFNWYVDGVEVHNAKTKPREEQFNSTYRVVSVLTVLHQDWLNGKEYKCKVSNKGLPSSIEKTISKAKGQPREPQVYTLPPCQEEMTKNQVSLWCLVKGFYPSDIAVEWESNGQPENNYKTTPPVLDSDGSFFLYSRLTVDKSRWQEGNVFSCSVMHEALHNHYTQKSLSLSL
chain: B1 chain
light: QAVVTQESALTTSPGETVTLTCRSSTGAVTTSNYANWVQEKPDHLFTGLIGGTNKRAPGVPARFSGSLIGDKAALTITGAQTEDEAIYFCALWYSNLWVFGGGTKVEIKRTVAAPSVFIFPPSDEQLKSGTASVVCLLNNFYPREAKVQWKVDNALQSGNSQESVTEQDSKDSTYSLSSTLTLSKADYEKHKVYACEVTHQGLSSPVTKSFNRGECGGGGSGGGGSEVQLVESGGGFVQAGESLTLSCTSSTLTFTPYRMAWYRQAPGKQRDLVADISSGDGRTTNYADFAKGRFTISRDNIKNTVFLRMTNLKPEDTAVYYCNTFVSFVGIARSWGQGTQVTVSS
notes: VHH linked to the CL of the Fab; human IgG4 knob-into-hole Fc
B3: Fab-Knob-CEA+Hole (102) (bispecific antibody, human IgG4 S228P, kappa, F234A L235A)
heavy: EVKLLESGGGLVQPKGSLKLSCAASGFTFNTYAMNWVRQAPGKGLEWVARIRSKYNNYATYYADSVKDRFTISRDDSQSILYLQMNNLKTEDTAMYYCVRHGNFGNSYVSWFAYWGQGTLVTVSSASTKGPSVFPLAPCSRSTSESTAALGCLVKDYFPEPVTVSWNSGALTSGVHTFPAVLQSSGLYSLSSVVTVPSSSLGTKTYTCNVDHKPSNTKVDKRVESKYGPPCPPCPAPEAAGGPSVFLFPPKPKDTLMISRTPEVTCVVVDVSQEDPEVQFNWYVDGVEVHNAKTKPREEQFNSTYRVVSVLTVLHQDWLNGKEYKCKVSNKGLPSSIEKTISKAKGQPREPQVYTLPPCQEEMTKNQVSLWCLVKGFYPSDIAVEWESNGQPENNYKTTPPVLDSDGSFFLYSRLTVDKSRWQEGNVFSCSVMHEALHNHYTQKSLSLSLGGGGSGGGGSEVQLVESGGGFVQAGESLTLSCTSSTLTFTPYRMAWYRQAPGKQRDLVADISSGDGRTTNYADFAKGRFTISRDNIKNTVFLRMTNLKPEDTAVYYCNTFVSFVGIARSWGQGTQVTVSS
chain: B1 chain
light: QAVVTQESALTTSPGETVTLTCRSSTGAVTTSNYANWVQEKPDHLFTGLIGGTNKRAPGVPARFSGSLIGDKAALTITGAQTEDEAIYFCALWYSNLWVFGGGTKVEIKRTVAAPSVFIFPPSDEQLKSGTASVVCLLNNFYPREAKVQWKVDNALQSGNSQESVTEQDSKDSTYSLSSTLTLSKADYEKHKVYACEVTHQGLSSPVTKSFNRGEC
notes: Anti-CD3 TA1 Fab + anti-CEA VHH C17 on human IgG4 knob-into-hole Fc
B4: Knob+CEA-Fab-Hole (202) (bispecific antibody, human IgG4 S228P, kappa, F234A L235A)
chain: B1 chain with C131Y, S136C, S148W, A150L, V189Y, R217H, F218Y
heavy: B2 heavy with Y354C, C359S, W371S, L373A, Y412V, H440R, Y441F
light: B2 light
notes: as for B2
B5: Fab-Knob+CEA-Hole (101) (bispecific antibody, human IgG4 S228P, kappa, F234A L235A)
heavy: B2 heavy
chain: EVQLVESGGGFVQAGESLTLSCTSSTLTFTPYRMAWYRQAPGKQRDLVADISSGDGRTTNYADFAKGRFTISRDNIKNTVFLRMTNLKPEDTAVYYCNTFVSFVGIARSWGQGTQVTVSSESKYGPPCPPCPAPEAAGGPSVFLFPPKPKDTLMISRTPEVTCVVVDVSQEDPEVQFNWYVDGVEVHNAKTKPREEQFNSTYRVVSVLTVLHQDWLNGKEYKCKVSNKGLPSSIEKTISKAKGQPREPQVCTLPPSQEEMTKNQVSLSCAVKGFYPSDIAVEWESNGQPENNYKTTPPVLDSDGSFFLVSRLTVDKSRWQEGNVFSCSVMHEALHNRFTQKSLSLSL
light: B3 light
notes: Anti-CD3 TA1 Fab + anti-CEA VHH C17 on human IgG4 knob-into-hole Fc, kappa light chain

biological target: T1, human CD3 on Jurkat cells (human, UniProt P07766 23-207; P04234 22-171; P09693 23-182); assay: FACS, Jurkat cells;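 further: flow cytometric binding of bispecific antibodies to Jurkat T cells, threefold serial dilutions incubated half an hour in the cold, EC50 taken from the fitted binding curve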
T1 construct: whole, on cells; CD3 complex as on Jurkat (Clone E6-1) cells; also called CD3 expressing cells (Jurkat)

Question: B1 was tested. Which EC50 did it give?
Answer: 0.146 µg/mL and 1.12 nM

Question: For B2, which EC50 is on record?
Answer: 0.312 µg/mL and 2.4 nM

Question: For B3, which EC50 is on record?
Answer: 0.592 µg/mL and 4.55 nM

Question: B4 was tested. Which EC50 did it give?
Answer: 0.292 µg/mL and 2.25 nM

Question: Which EC50 does the source give for B5 here?
Answer: 6.28 µg/mL and 48.3 nM

biological target: T2, human CD3ε/δ (ACRO systems, CDD-H52W1) (human, UniProt P07766 23-126; P04234 22-105); assay: BLI, antibody captured, antigen in solution;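 further: bispecific antibodies captured on AHIC biosensors to a 1.5 nm loading signal, in PBST with 0.02% detergent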
T2 construct: Bought protein; also called human CD3ϵ/CD3δ; human CD3 epsilon/delta antigen
Protocol: The bispecific antibodies were diluted to 5 ag/ml, and 1.5 nm protein was coupled to the surface of the AHIC sensor chip through 0.02% PBST.

Question: For B1, which Kd is on record?
Answer: 3.24 nM

Question: And the koff?
Answer: 0.000565 s⁻¹

Question: And the kon?
Answer: 157000 M⁻¹ s⁻¹

Question: Which Kd does the source give for B2 here?
Answer: 2.59 nM

Question: And the koff?
Answer: 0.00046 s⁻¹

Question: And the kon?
Answer: 178000 M⁻¹ s⁻¹

Question: What does the source list for B3?
Answer: Kd: 0.984 nM; koff: 0.000327 s⁻¹; kon: 333000 M⁻¹ s⁻¹

Question: How did the Kd turn out when B4 was run?
Answer: 3.9 nM

Question: And the koff?
Answer: 0.000866 s⁻¹

Question: And the kon?
Answer: 222000 M⁻¹ s⁻¹

Question: What does the source list for B5?
Answer: Kd: 0.979 nM; koff: 0.0004 s⁻¹; kon: 409000 M⁻¹ s⁻¹
